Among the data in article PMC6192581 (2018) are Kd values, retold here.

Like-named read-outs stand apart in the source and are kept apart here.

The target in assay [1] is T1, LDL (apolipoprotein B-100) (Homo sapiens, UniProt P04114).
Assay [2] deals with T1, LDL (apolipoprotein B-100). The source holds these as a separate data set.

B1: LDL receptor 1-789 (protein)
chain: not shown
The Kd is the free concentration of one partner at which half of the binding sites on the other are occupied at equilibrium, for simple one-to-one binding. As to B1, the Kd in assay [1] was determined as 7.01 nM; in assay [2], 0.58 nM.
